Data taken from the PETadex activity labels (doi:10.1021/acscatal.9b00568).

Substrate: PET
Assay: Proxy for plastic degradation [HPLC-UV]
Settings: pH 9
[1] = 30 °C, 0 h, part of the chain shown
[2] = 30 °C, 1 h, part of the chain shown
[3] = 30 °C, 2 h, part of the chain shown
[4] = 30 °C, 3 h, part of the chain shown
[5] = 30 °C, 4 h, part of the chain shown
[6] = 30 °C, 5 h, part of the chain shown
[7] = 30 °C, 6 h, part of the chain shown
[8] = 30 °C, 7 h, part of the chain shown
[9] = 30 °C, 8 h, part of the chain shown
[10] = 30 °C, 9 h, part of the chain shown
[11] = 30 °C, 10 h, part of the chain shown
[12] = 40 °C, 0 h, part of the chain shown
[13] = 40 °C, 1 h, part of the chain shown
[14] = 40 °C, 2 h, part of the chain shown
[15] = 40 °C, 3 h, part of the chain shown
[16] = 40 °C, 4 h, part of the chain shown
[17] = 40 °C, 5 h, part of the chain shown
[18] = 40 °C, 6 h, part of the chain shown
[19] = 40 °C, 7 h, part of the chain shown
[20] = 40 °C, 8 h, part of the chain shown
[21] = 40 °C, 9 h, part of the chain shown
[22] = 40 °C, 10 h, part of the chain shown

B1: unnamed (protein)
chain: MNFPRASRLMQAAVLGGLMAVSAAATAQTNPYARGPNPTAASLEASAGPFTVRSFTVSRPSGYGAGTVYYPTNAGGTVGAIAIVPGYTARQSSIKWWGPRLASHGFVVITIDTNSTLDQPESRSSQQMAALRQVASLNGTSSSPIYGKVDTARMGVMGWSMGGGGSLISAANNPSLKAAAPQAPWHSSTNFSSVTVPTLIFACENDSIAPVNSSALPIYDSMSRNAKQFLEINGGSHSCANSGNSNQALIGKKGVAWMKRFMDNDTRYSTFACENPNSTAVSDFRTANCS
**Q.** How did the “Proxy for plastic degradation” value [1] turn out when B1 was run?
**A.** Its value is 0 µM.

**Q.** What about the “Proxy for plastic degradation” value [2] of the same protein?
**A.** The value was 25 µM.

**Q.** And the “Proxy for plastic degradation” value [3]?
**A.** Its value is 42 µM.

**Q.** And the “Proxy for plastic degradation” value [4]?
**A.** Its value is 50 µM.

**Q.** What about the “Proxy for plastic degradation” value [5] of the same protein?
**A.** Its value is 55 µM.

**Q.** What about the “Proxy for plastic degradation” value [6] of the same protein?
**A.** Its value is 68 µM.

**Q.** And the “Proxy for plastic degradation” value [7]?
**A.** The value was 70 µM.

**Q.** What about the “Proxy for plastic degradation” value [8] of the same protein?
**A.** Its value is 80 µM.

**Q.** And the “Proxy for plastic degradation” value [9]?
**A.** Its value is 75 µM.

**Q.** And the “Proxy for plastic degradation” value [10]?
**A.** Its value is 90 µM.

**Q.** What about the “Proxy for plastic degradation” value [11] of the same protein?
**A.** The value was 92 µM.

**Q.** And the “Proxy for plastic degradation” value [12]?
**A.** Its value is 0 µM.

**Q.** And the “Proxy for plastic degradation” value [13]?
**A.** The value was 70 µM.

**Q.** And the “Proxy for plastic degradation” value [14]?
**A.** The value was 82 µM.

**Q.** And the “Proxy for plastic degradation” value [15]?
**A.** The value was 105 µM.

**Q.** What about the “Proxy for plastic degradation” value [16] of the same protein?
**A.** The value was 100 µM.

**Q.** What about the “Proxy for plastic degradation” value [17] of the same protein?
**A.** Its value is 102 µM.

**Q.** And the “Proxy for plastic degradation” value [18]?
**A.** The value was 104 µM.

**Q.** And the “Proxy for plastic degradation” value [19]?
**A.** The value was 100 µM.

**Q.** What about the “Proxy for plastic degradation” value [20] of the same protein?
**A.** The value was 104 µM.

**Q.** What about the “Proxy for plastic degradation” value [21] of the same protein?
**A.** The value was 115 µM.

**Q.** And the “Proxy for plastic degradation” value [22]?
**A.** The value was 108 µM.

B2: unnamed (protein)
chain: MNFPRASRLMQAAVLGGLMAVSAAATAQTNPYARGPNPTAASLEASAGPFTVRSFTVSRPSGYGAGTVYYPTNAGGTVGAIAIVPGYTARQSSIKWWGPRLASHGFVVITIDTNSTLDQPSSRSSQQMAALRQVASLNGTSSSPIYGKVDTARMGVMGWSMGGGGSLISAANNPSLKAAAPQAPWDSSTNFSSVTVPTLIFACENDSIAPVNSSALPIYDSMSRNAKQFLEINGGSHSCANSGNSNQALIGKKGVAWMKRFMDNDTRYSTFACENPNSTRVSDFRTANCS
**Q.** With B2 as the protein, how does the “Proxy for plastic degradation” value [1] read?
**A.** The value was 0 µM.

**Q.** And the “Proxy for plastic degradation” value [2]?
**A.** The value was 5 µM.

**Q.** What about the “Proxy for plastic degradation” value [3] of the same protein?
**A.** Its value is 7 µM.

**Q.** What about the “Proxy for plastic degradation” value [4] of the same protein?
**A.** The value was 10 µM.

**Q.** What about the “Proxy for plastic degradation” value [5] of the same protein?
**A.** The value was 11 µM.

**Q.** What about the “Proxy for plastic degradation” value [6] of the same protein?
**A.** The value was 11 µM.

**Q.** What about the “Proxy for plastic degradation” value [7] of the same protein?
**A.** The value was 12 µM.

**Q.** What about the “Proxy for plastic degradation” value [8] of the same protein?
**A.** Its value is 14 µM.

**Q.** What about the “Proxy for plastic degradation” value [9] of the same protein?
**A.** The value was 15 µM.

**Q.** What about the “Proxy for plastic degradation” value [10] of the same protein?
**A.** The value was 13 µM.

**Q.** And the “Proxy for plastic degradation” value [11]?
**A.** The value was 15 µM.

**Q.** And the “Proxy for plastic degradation” value [12]?
**A.** Its value is 0 µM.

**Q.** And the “Proxy for plastic degradation” value [13]?
**A.** The value was 11 µM.

**Q.** And the “Proxy for plastic degradation” value [14]?
**A.** The value was 10 µM.

**Q.** And the “Proxy for plastic degradation” value [15]?
**A.** The value was 10 µM.

**Q.** And the “Proxy for plastic degradation” value [16]?
**A.** The value was 10 µM.

**Q.** And the “Proxy for plastic degradation” value [17]?
**A.** The value was 7 µM.

**Q.** What about the “Proxy for plastic degradation” value [18] of the same protein?
**A.** Its value is 8 µM.

**Q.** What about the “Proxy for plastic degradation” value [19] of the same protein?
**A.** The value was 9 µM.

**Q.** What about the “Proxy for plastic degradation” value [20] of the same protein?
**A.** The value was 8 µM.

**Q.** What about the “Proxy for plastic degradation” value [21] of the same protein?
**A.** The value was 7 µM.

**Q.** And the “Proxy for plastic degradation” value [22]?
**A.** Its value is 8 µM.

B3: unnamed (protein)
chain: MNFPRASRLMQAAVLGGLMAVSAAATAQTNPYARGPNPTAASLEASAGPFTVRSFTVSRPSGYGAGTVYYPTNAGGTVGAIAIVPGYTARQSSIKWWGPRLASHGFVVITIDTNSTLDQPSSRSSQQMAALRQVASLNGTSSSPIYGKVDTARMGVMGWSMGGGGSLISAANNPSLKAAAPQAPWFSSTNFSSVTVPTLIFACENDSIAPVNSSALPIYDSMSRNAKQFLEINGGSHSCANSGNSNQALIGKKGVAWMKRFMDNDTRYSTFACENPNSTRVSDFRTANCS
**Q.** What does the source list for B3?
**A.** Proxy for plastic degradation (30 °C, 24 h): 6 µM; Proxy for plastic degradation (30 °C, 72 h): 11.4 µM; Proxy for plastic degradation (40 °C, 24 h): 7.5 µM; Proxy for plastic degradation (40 °C, 72 h): 14.4 µM

B4: unnamed (protein)
chain: MNFPRASRLMQAAVLGGLMAVSAAATAQTNPYARGPNPTAASLEASAGPFTVRSFTVSRPSGYGAGTVYYPTNAGGTVGAIAIVPGYTARQSSIKWWGPRLASHGFVVITIDTNSTLDQPDSRSSQQMAALRQVASLNGTSSSPIYGKVDTARMGVMGWSMGGGGSLISAANNPSLKAAAPQAPWHSSTNFSSVTVPTLIFACENDSIAPVNSSALPIYDSMSRNAKQFLEINGGSHSCANSGNSNQALIGKKGVAWMKRFMDNDTRYSTFACENPNSTRVSDFRTANCS
**Q.** What does the source list for B4?
**A.** Proxy for plastic degradation (30 °C, 24 h): 15.2 µM; Proxy for plastic degradation (30 °C, 72 h): 23.2 µM; Proxy for plastic degradation (40 °C, 24 h): 28.9 µM; Proxy for plastic degradation (40 °C, 72 h): 38.4 µM

B5: unnamed (protein)
chain: MNFPRASRLMQAAVLGGLMAVSAAATAQTNPYARGPNPTAASLEASAGPFTVRSFTVSRPSGYGAGTVYYPTNAGGTVGAIAIVPGYTARQSSIKWWGPRLASHGFVVITIDTNSTLDQPSSRSSQQMAALRQVASLNGTSSSPIYGKVDTARMGVMGWSMGGGGSLISAANNPSLKAAAPQAPWLSSTNFSSVTVPTLIFACENDSIAPVNSSALPIYDSMSRNAKQFLEINGGSHSCANSGNSNQALIGKKGVAWMKRFMDNDTRYSTFACENPNSTRVSDFRTANCS
**Q.** B5 was tested. Which “Proxy for plastic degradation” value (30 °C, 24 h) did it give?
**A.** The value was 2.1 µM.

**Q.** What about the “Proxy for plastic degradation” value (30 °C, 72 h) of the same protein?
**A.** Its value is 3.1 µM.

**Q.** And the “Proxy for plastic degradation” value (40 °C, 24 h)?
**A.** Its value is 2 µM.

**Q.** What about the “Proxy for plastic degradation” value (40 °C, 72 h) of the same protein?
**A.** The value was 7.1 µM.
